Our source for the EC50 values is patent publication US20180221507A1 (IMAGINAB, published 2018).

Sequences and labels used below:
B1: IAB22C-2 (other)
scFv: DVQITQSPSSLSASVGDRVTITCRTSRSISQYLAWYQQKPGKVPKLLIYSGSTLQSGVPSRFSGSGSGTDFTLTISSLQPEDVATYYCQQHNENPLTFGGGTKVEIKSGGGGEVQLVESGGGLVQPGGSLRLSCAASGFNIKDTYIHFVRQAPGKGLEWIGRIDPANDNTLYASKFQGKATISADTSKNTAYLQMNSLRAEDTAVYYCGRGYGYYVFDHWGQGTLVTVSSGGCPPC
notes: Cys-diabody (scFv dimer); also called anti-CD8 Cys-diabody, 2 Cys (CPPC)
B2: IAB22C-3 (other)
scFv: DVQITQSPSSLSASVGDRVTITCRTSRSISQYLAWYQQKPGKVPKLLIYSGSTLQSGVPSRFSGSGSGTDFTLTISSLQPEDVATYYCQQHNENPLTFGGGTKVEIKSGGGGEVQLVESGGGLVQPGGSLRLSCAASGFNIKDTYIHFVRQAPGKGLEWIGRIDPANDNTLYASKFQGKATISADTSKNTAYLQMNSLRAEDTAVYYCGRGYGYYVFDHWGQGTLVTVSSGGCPPCPPC
notes: Cys-diabody (scFv dimer); also called anti-CD8 Cys-diabody, 3 Cys (CPPCPPC)
B3: IAB22C-1 (other)
scFv: DVQITQSPSSLSASVGDRVTITCRTSRSISQYLAWYQQKPGKVPKLLIYSGSTLQSGVPSRFSGSGSGTDFTLTISSLQPEDVATYYCQQHNENPLTFGGGTKVEIKGGGSGGGGEVQLVESGGGLVQPGGSLRLSCAASGFNIKDTYIHFVRQAPGKGLEWIGRIDPANDNTLYASKFQGKATISADTSKNTAYLQMNSLRAEDTAVYYCGRGYGYYVFDHWGQGTLVTVSSGGC
notes: Cys-diabody (scFv dimer); also called anti-CD8 Cys-diabody, 1 Cys (GGC)

A word on the EC50: it is the concentration needed to bring the measured effect to its halfway point. Low values mean higher potency in that assay, high ones lower potency in that assay.

T1 sequence (P01732 22-235): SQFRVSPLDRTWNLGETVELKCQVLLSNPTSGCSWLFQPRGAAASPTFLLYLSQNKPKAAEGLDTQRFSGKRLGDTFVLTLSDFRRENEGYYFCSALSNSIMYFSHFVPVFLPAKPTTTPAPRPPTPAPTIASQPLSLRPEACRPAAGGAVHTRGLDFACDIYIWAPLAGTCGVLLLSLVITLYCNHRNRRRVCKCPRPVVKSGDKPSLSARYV

The experiment addresses T1, CD8 expressed on the surface of HPB-ALL cells (UniProt P01732 22-235).
T1 construct: whole, on cells
Put plainly: flow cytometry on HPB-ALL cells, MFI against concentration, four-parameter fit. How it is done: The cells were centrifuged at 400 rpm for 5 minutes, re-suspended in 200 uL of cell staining buffer (1% BSA in phosphate buffer saline, 0.09% sodium azide). Data were acquired on the Attune Acoustic Focusing Cytometer (Applied Biosystems, Foster City, Calif.) (FIG. 9A) and Mean Fluorescent Intensity (MFI) values were plotted against concentration for each sample (FIG. 9B). Best fit binding curves and IC₅₀ values were generated with four-parameter logistic nonlinear regression using GraphPad Prism version 6 for Windows (GraphPad Software, La Jolla, Calif.). and binding assessed on an Attune acoustic focusing cytometer (Applied Biosystems) (Table 4.3).
(In general: In flow cytometry, cells or beads pass a laser one at a time.)
Regarding B1, the EC50 came out at 0.15 nM.
For B2, the EC50 was 0.13 nM.
The result for B3 reads 0.08 nM.
